Reference: publication PMC10716779

Molecular target: Full-length rat neuronal nitric oxide synthase (nNOS) (rat) (UniProt P29476)
Sequence (P29476 whole entry): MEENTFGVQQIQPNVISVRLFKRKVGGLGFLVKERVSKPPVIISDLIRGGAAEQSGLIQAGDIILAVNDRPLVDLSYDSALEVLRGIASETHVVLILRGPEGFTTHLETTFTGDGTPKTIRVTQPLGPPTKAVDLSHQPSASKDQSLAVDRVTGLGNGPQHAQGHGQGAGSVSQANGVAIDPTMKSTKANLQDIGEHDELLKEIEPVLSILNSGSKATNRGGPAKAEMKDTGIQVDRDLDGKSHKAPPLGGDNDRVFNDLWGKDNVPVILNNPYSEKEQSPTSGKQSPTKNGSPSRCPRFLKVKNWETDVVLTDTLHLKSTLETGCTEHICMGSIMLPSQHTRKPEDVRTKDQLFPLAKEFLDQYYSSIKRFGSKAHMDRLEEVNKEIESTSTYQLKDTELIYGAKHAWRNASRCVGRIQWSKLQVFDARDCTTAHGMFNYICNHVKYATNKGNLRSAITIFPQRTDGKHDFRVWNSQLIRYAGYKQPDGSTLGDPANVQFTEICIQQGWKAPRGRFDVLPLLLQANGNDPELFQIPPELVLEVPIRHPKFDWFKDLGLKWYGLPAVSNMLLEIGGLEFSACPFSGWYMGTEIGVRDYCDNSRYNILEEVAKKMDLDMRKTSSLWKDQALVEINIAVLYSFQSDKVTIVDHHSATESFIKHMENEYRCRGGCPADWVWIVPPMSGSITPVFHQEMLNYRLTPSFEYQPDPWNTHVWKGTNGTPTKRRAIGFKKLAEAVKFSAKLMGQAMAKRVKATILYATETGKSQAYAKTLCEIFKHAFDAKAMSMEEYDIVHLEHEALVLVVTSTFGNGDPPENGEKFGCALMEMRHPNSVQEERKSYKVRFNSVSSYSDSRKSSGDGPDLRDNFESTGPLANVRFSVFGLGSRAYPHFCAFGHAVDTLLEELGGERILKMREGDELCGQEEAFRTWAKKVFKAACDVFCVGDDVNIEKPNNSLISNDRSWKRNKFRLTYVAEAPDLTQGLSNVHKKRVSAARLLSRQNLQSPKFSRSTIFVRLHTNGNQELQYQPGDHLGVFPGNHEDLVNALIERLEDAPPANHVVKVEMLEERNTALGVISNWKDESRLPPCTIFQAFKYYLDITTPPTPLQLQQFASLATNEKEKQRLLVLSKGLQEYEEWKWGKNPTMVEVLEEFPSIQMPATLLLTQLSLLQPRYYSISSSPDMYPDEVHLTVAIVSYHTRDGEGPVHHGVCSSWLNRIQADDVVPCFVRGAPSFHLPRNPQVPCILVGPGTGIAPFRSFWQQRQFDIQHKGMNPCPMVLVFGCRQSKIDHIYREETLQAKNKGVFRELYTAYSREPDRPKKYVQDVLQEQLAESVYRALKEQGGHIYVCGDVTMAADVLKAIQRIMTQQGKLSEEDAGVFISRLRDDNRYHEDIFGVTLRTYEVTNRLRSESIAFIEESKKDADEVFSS

nNOS activity (NO synthesis, oxyhemoglobin assay) of 2.0 μM nNOS against increasing CaM concentration; CaM concentration at maximal activation: 2.4 µM
Substance: Human calmodulin (CaM), N-terminal His6-TEV tag removed (from UniProt P0DP23 1-149) (natural protein)
